{"source": "patent US20230144436A1", "about": "“MUSCLE TARGETING COMPLEXES AND USES THEREOF FOR TREATING MYOTONIC DYSTROPHY” (Dyne Therapeutics, Inc., priority 2020, published 2023)", "key": {"[1]": {"test_system": "DMPK", "assay": "DMPK knockdown by anti-TfR1 antibody-oligonucleotide conjugates in DM1 patient myotubes", "type": "cell-based, human", "conditions": "for % knockdown of DMPK in cells from human DM1 patients using Antibody-DMPK ASO conjugate: DM1 patient myotubes, conjugate with control DMPK-ASO, 72 hours, concentration not stated (0.5, 5, 50 nM tested)", "method": "(§1) The purified complexes were then tested for cellular internalization and inhibition of the target gene, DMPK. Non-human primate (NHP) or DM1 (donated by DM1 patients) cells were grown in 96-well plates and differentiated into myotubes for 7 days. Cells were then treated with escalating concentrations (0.5 nM, 5 nM, 50 nM) of each complex for 72 hours. Cells were harvested, RNA was isolated, and reverse transcription was performed to generate cDNA. qPCR was performed using TaqMan kits specific for Ppib (control) and DMPK on the QuantStudio 7. The relative amounts of remaining DMPK transcript in treated vs non-treated cells was were calculated and the results are shown in Table 14 and FIG. 20.\nas §1, with “of” for “of the target gene,”, “in” for “in Table 14 and”, “23.” for “20.”"}, "[2]": {"test_system": "DMPK", "assay": "DMPK knockdown by anti-TfR1 antibody-oligonucleotide conjugates in NHP myotubes", "type": "cell-based, non-human primate", "conditions": "conjugate with control DMPK-ASO, 72 hours, concentration not stated (0.5, 5, 50 nM tested)", "method": "as §1\nas §1, with “of” for “of the target gene,”, “in” for “in Table 14 and”, “23.” for “20.”"}, "[3]": {"molecular_target": "hTfR1 (Homo sapiens, UniProt P02786)", "sequence (P02786 whole entry)": "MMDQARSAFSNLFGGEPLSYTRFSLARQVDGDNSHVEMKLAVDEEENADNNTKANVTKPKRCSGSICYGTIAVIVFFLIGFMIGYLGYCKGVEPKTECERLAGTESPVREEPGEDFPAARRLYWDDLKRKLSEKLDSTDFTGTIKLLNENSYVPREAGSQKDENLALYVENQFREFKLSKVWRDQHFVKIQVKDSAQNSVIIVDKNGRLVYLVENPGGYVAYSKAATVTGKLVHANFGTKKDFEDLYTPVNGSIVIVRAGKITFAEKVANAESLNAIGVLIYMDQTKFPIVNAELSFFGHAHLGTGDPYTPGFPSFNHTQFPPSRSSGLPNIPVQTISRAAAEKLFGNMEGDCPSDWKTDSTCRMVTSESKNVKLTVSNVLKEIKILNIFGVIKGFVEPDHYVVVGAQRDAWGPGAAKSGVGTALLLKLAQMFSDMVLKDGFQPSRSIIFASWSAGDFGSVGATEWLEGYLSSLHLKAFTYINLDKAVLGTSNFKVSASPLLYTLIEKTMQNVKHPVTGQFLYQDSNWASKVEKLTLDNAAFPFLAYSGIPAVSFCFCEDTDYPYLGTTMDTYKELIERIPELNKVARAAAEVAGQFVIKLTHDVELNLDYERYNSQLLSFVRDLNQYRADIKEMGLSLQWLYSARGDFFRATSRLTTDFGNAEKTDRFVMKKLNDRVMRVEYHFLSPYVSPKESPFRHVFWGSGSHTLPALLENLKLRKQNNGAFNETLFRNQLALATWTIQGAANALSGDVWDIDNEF", "assay": "Binding kinetics of anti-TfR1 antibodies on Carterra LSA, hTfR1", "conditions": "Carterra LSA at 25 C", "method": "Selected anti-TfR1 antibodies were tested for their binding affinity to human TfR1 for measurement of Ka (association rate constant), Kd (dissociation rate constant), and KD (affinity). […] The binding experiment was performed on Carterra LSA at 25 C. An anti-mouse IgG and anti-human IgG antibody “lawn” was prepared on a HC30M chip by amine coupling. 59 IgGs (58 mouse mAbs and 1 human mAb) were captured on the chip. Dilution series of hTfR1, cyTfR1, and hTfR2 were injected to the chip for binding (starting from 1000 nM, 1:3 dilution, 8 concentrations).\nBinding data were referenced by subtracting the responses from a buffer analyte injection and globally fitting to a 1:1 Langmuir binding model for estimate of Ka (association rate constant), Kd (dissociation rate constant), and KD (affinity) using the Carterra™ Kinetics software. 5-6 concentrations were used for curve fitting."}}}
{"molecule": "9-K23 (antibody, V domains shown) VH: QVTLKESGPGMLQPSQTLSLTCSFSGFSLNTYDVGVGWIRQPSGKGLEWLANIWWNDDKYYNSALKSRLTISKDTSNNQVFLKISSVDTADTATYYCTLYSYDGGFAYWGQGTLVTVSA VL: QIVLTQSPAIMSASLGERVTMTCTASSSVSSSYLHWYQQKPGSSPKLWIYSTSNLASGVPARFSGSGSGTSYSLTISSMEAEDAATYYCHQYHRSPYTFGGGTKLEIK", "values": [{"measurement": "% knockdown of DMPK in cells from human DM1 patients using Antibody-DMPK ASO conjugate", "setting": "[1]", "value": "−4", "unit": "%"}, {"measurement": "% knockdown of DMPK in NHP cells using Antibody-DMPK ASO conjugate", "setting": "[2]", "value": 47, "unit": "%"}, {"measurement": "dissociation rate constant (koff)", "setting": "[3]", "value": 21.7, "unit": "µM"}]}
{"molecule": "10-H2 (antibody, V domains shown) VH: EVQLVESGGDLVKPGGSLKLSCAASGFTFSDYGMHWVRQGPEKGLEWVAYINSGSSTIYYADTVKGRFTISRDNAKNTLFLQMTSLRSEDTAMYYCARPGDYDNYAMDYWGQGTSVTVSS VL: DIVMTQSHKFLSTSVGDRVSITCKASQDVSVAVAWYQQKPGQSPKLLIYWAYTRHTGVPDRFTGSGSGTEYTLTISSVQAEDLALYYCQQHYNTPPWTFGGGTKLEIK", "values": [{"measurement": "% knockdown of DMPK in cells from human DM1 patients using Antibody-DMPK ASO conjugate", "setting": "[1]", "value": 16, "unit": "%"}, {"measurement": "% knockdown of DMPK in NHP cells using Antibody-DMPK ASO conjugate", "setting": "[2]", "value": 2, "unit": "%"}]}
{"molecule": "6-D3 (antibody, V domains shown) VH: QVQLQQPGAELVKPGASVKMSCKASGYTFTRHWITWVKQRPGQGLEWIGDIYPGSGRTNYNEKFKSTATLTVDTSSSTAYMQLSSLTSEDSAVYYCARDGYLYINYFDYWGQGTTLTVSS VL: ENVLTQSPAIMSASPGEKVTMTCSASSSVSFMHWFQQKSSTSPKLWIYDTSKLASGVPGRFSGSGSGSSYSLTISSMAAEDVATYYCFQGSGYPYTFGGGTKLEIK", "values": [{"measurement": "% knockdown of DMPK in cells from human DM1 patients using Antibody-DMPK ASO conjugate", "setting": "[1]", "value": "−5", "unit": "%"}, {"measurement": "% knockdown of DMPK in NHP cells using Antibody-DMPK ASO conjugate", "setting": "[2]", "value": "−8", "unit": "%"}]}
{"molecule": "2-H19 (antibody, V domains shown) VH: EVQLQQSGAELVRSGASVKLSCTASGFNIKDYYMHWVKQRPEQGLEWIGWIDPESGDTEYAPKFQGRATMTADTSSNTAYMQLSSLTSEDTAVYYCYGHDYRVDCWGQGTSVTVSS VL: DVVMTQTPLSLPVSLGDQASISCRSSQSLVHSNGNTYLHWYLQKPGQSPKLLIYKVSNRFSGVPDRFSGSGSGTDFTLKISRVEAEDLGVYFCSQSTHIPWTFGGGTKLEIK", "values": [{"measurement": "% knockdown of DMPK in cells from human DM1 patients using Antibody-DMPK ASO conjugate", "setting": "[1]", "value": 24, "unit": "%"}, {"measurement": "% knockdown of DMPK in NHP cells using Antibody-DMPK ASO conjugate", "setting": "[2]", "value": 39, "unit": "%"}, {"measurement": "dissociation rate constant (koff)", "setting": "[3]", "value": 456, "unit": "µM"}]}
{"molecule": "4-J22 (antibody, V domains shown) VH: EVQLQQSGAELVRSGASVKLSCTASGFNIKDYYIHWVKQRPEQGLEWIGWIDPENADTEYAPKFQGKATMTPDTSSNTAYLQLSSLTSEDTAVYYCYAWDYSMDYWGQGTSVTVSS VL: DVVMTQTPLSLSVSLGDQASISCRSSQSLVHSNGNTYLHWYLQKPGQSPKLLIYKVSNRFSGVPDRFSGSGSGTDFILKISRVEAEDLGVYFCSQNTHVPYTFGGGTRLEIK", "values": [{"measurement": "% knockdown of DMPK in cells from human DM1 patients using Antibody-DMPK ASO conjugate", "setting": "[1]", "value": 57, "unit": "%"}, {"measurement": "% knockdown of DMPK in NHP cells using Antibody-DMPK ASO conjugate", "setting": "[2]", "value": 7, "unit": "%"}]}
{"molecule": "4-C5 (antibody, V domains shown) VH: QVQLQQSGAELMKPGASVKISCKATGYTFSNYWIEWVKQRPGHGLEWIGEILPGSGSTNYNENFKGKATFTADTSSNTAYMQLSSLTSEDSAVYYCARRGAYGNFHYWGQGTTLTVSS VL: EIVLTQSPALMAASPGEKVTITCSVSSSISSSNLHWYQQKSETSPKPWIYGTSNLASGVPVRFSGSGSGTSYSLTISSMEAEDAATYYCQQWRSYPYTFGGGTKLEIK", "values": [{"measurement": "% knockdown of DMPK in cells from human DM1 patients using Antibody-DMPK ASO conjugate", "setting": "[1]", "value": 35, "unit": "%"}, {"measurement": "% knockdown of DMPK in NHP cells using Antibody-DMPK ASO conjugate", "setting": "[2]", "value": "−20", "unit": "%"}]}
{"molecule": "8-O17 (antibody, V domains shown) VH: QVQLKESGPGLVAPSQSLSITCTVSGFSLTNYGVHWVRQPPGKGLEWLVVIWNDGSATYNSALESRLSISKDNSKSQVFLKMNSLQTDDTAMYYCARHESSNPFAYWGQGTLVTVSA VL: DILLTQSPAILSVSPGERVSFSCRASQSIGTSIHWYQQRTNGSPRLLIKSASESIAGIPSRFSGSGSGTDFTLSINSVESEDIADYYCQQNNRWPYTFGGGTKLEIK", "values": [{"measurement": "% knockdown of DMPK in cells from human DM1 patients using Antibody-DMPK ASO conjugate", "setting": "[1]", "value": 41, "unit": "%"}, {"measurement": "% knockdown of DMPK in NHP cells using Antibody-DMPK ASO conjugate", "setting": "[2]", "value": 26, "unit": "%"}, {"measurement": "dissociation rate constant (koff)", "setting": "[3]", "value": 91.2, "unit": "µM"}]}
{"molecule": "3-M12 (antibody, V domains shown) VH: DVQLQESGPGLVKPSQSLSLTCSVTGYSITSGYYWNWIRQFPGNKLEWMGYITFDGANNYNPSLKNRISITRDTSKNQFFLKLTSVTTEDTATYYCTRSSYDYDVLDYWGQGTTLTVSS VL: DIQMTQTTSSLSASLGDRVTISCRASQDISNFLNWYQQRPDGTVKLLIYYTSRLHSGVPSRFSGSGSGTDFSLTVSNLEQEDIATYFCQQGHTLPYTFGGGTKLEIK", "values": [{"measurement": "% knockdown of DMPK in cells from human DM1 patients using Antibody-DMPK ASO conjugate", "setting": "[1]", "value": 52, "unit": "%"}, {"measurement": "activity in delivering a payload (DMPK ASO) and achieving DMPK knockdown compared to the control antibody 15G11", "setting": "[1]; conjugates with control DMPK-ASO, in either cyno cells or human DM1 patient cells", "value": "superior activity"}, {"measurement": "% knockdown of DMPK in NHP cells using Antibody-DMPK ASO conjugate", "setting": "[2]", "value": 77, "unit": "%"}, {"measurement": "dissociation rate constant (koff)", "setting": "[3]", "value": 127, "unit": "µM"}]}
